Test results reported in publication PMC8535469, “Insight into the Binding and Hydrolytic Preferences of hNudt16 Based on Nucleotide Diphosphate Substrates” (International Journal of Molecular Sciences, 2021).

Target: the molecule itself
Assay: SAXS; 2.618 mg/mL hNudt16 in 20 mM HEPES pH 7.9, 300 mM NaCl, 10% glycerol, 0.5 mM TCEP, 20 mM MgCl2; room temperature; scattering compared with crystal structures of the dimer (CRYSOL) and ab initio model (DAMMIN)

B1: human Nudt16 protein (hNudt16), wild type (enzyme, UniProt Q96DE0 1-195, looked up)
chain: MAGARRLELGEALALGSGWRHACHALLYAPDPGMLFGRIPLRYAILMQMRFDGRLGFPGGFVDTQDRSLEDGLNRELREELGEAAAAFRVERTDYRSSHVGSGPRVVAHFYAKRLTLEELLAVEAGATRAKDHGLEVLGLVRVPLYTLRDGVGGLPTFLENSFIGSAREQLLEALQDLGLLQSGSISGLKIPAHH
notes: human Nudt16 (hNudt16), NUDIX hydrolase; also called hNudt16 WT
stoichiometry N: 2
